Results reported in publication PMC5650360, “Maslinic acid promotes autophagy by disrupting the interaction between Bcl2 and Beclin1 in rat pheochromocytoma PC12 cells” (Oncotarget, 2017).

Molecular target: T1, rat Beclin1 BH3 domain and Coiled Coil domain (residues 100-266) (rat, UniProt Q91XJ1 100-266)
T1 construct: Beclin1, rat, BH3 domain and coiled coil domain, residues 100-266; Cloned in a modified pET32 vector with a human rhinovirus 3C protease site and without thioredoxin; source: E. coli BL21 (DE3), purified (HisTrap HP, 3C cleavage, Superdex 75)
T1 sequence (Q91XJ1 100-266): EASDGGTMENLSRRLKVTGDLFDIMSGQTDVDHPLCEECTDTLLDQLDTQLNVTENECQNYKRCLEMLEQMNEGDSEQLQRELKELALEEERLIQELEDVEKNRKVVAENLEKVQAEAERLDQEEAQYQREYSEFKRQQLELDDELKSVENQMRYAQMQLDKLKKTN
Experiment: ITC; 200 μM Beclin1 injected (2 μl aliquots) into 200 μl of 20 μM Bcl2, 50 mM Tris pH 8.0, 150 mM NaCl, Auto-iTC200, without MA
Conditions: both partners purified

B1: BH3 motif containing region of rat Bcl2 (residues 1-156), un-tagged version (domain or fragment, UniProt P49950 1-156, looked up)
chain: MAQAGRTGYDNREIVMKYIHYKLSQRGYEWDTGDEDSAPLRAAPTPGIFSFQPESNRTPAVHRDTAARTSPLRPLVANAGPALSPVPPVVHLTLRRAGDDFSRRYRRDFAEMSSQLHLTPFTARGRFATVVEELFRDGVNWGRIVAFFEFGGVMCV
notes: Bcl2, rat, BH3 motif containing region, residues 1-156; Cloned as a GST fusion in a modified pET32 vector with a 3C protease site
- Kd: ~7.3 µM
